Assay results published in article PMC5367461 (Biochemical and biophysical research communications, 2017).

T1: PDZ-RhoGEF PDZ domain (residues 41-123), human (human, UniProt O15085 41-123)
T1 sequence (looked up): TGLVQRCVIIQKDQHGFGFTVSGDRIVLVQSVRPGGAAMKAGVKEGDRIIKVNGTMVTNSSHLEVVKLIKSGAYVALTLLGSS


Experiments:
[1] = molecular target: the molecule itself; assay: SDS-PAGE with/without BME
[2] = molecular target: T1, PDZ-RhoGEF PDZ domain (residues …); assay: crystal structure

Row | binding result [2] | Binder | stoichiometry N [1]
1 |  | rPDZ-CXCR2 fusion protein: human PDZ-RhoGEF PDZ (residues 41-123) with the C-terminal extension TSTTL of human CXCR2 (other) TGLVQRCVIIQKDQHGFGFTVSGDRIVLVQSVRPGGAAMKAGVKEGDRIIKVNGTMVTNSSHLEVVKLIKSGAYVALTLLGSSTSTTL | 2
2 | binds | TSTTL [CXCR2 C-terminal PDZ binding motif TSTTL (residues 356-360 of human CXCR2)] | 
